Measured values taken from patent CN114478780A (AGRICULTURAL UNIV IN CHINA, dated 2022).

B1: HN3 (antibody, V domains shown)
VH: QVQLVQSGGGLVQPGGSLRLSCAASYFDFDSYEMSWVRQAPGKGLEWIGSIYHSGSTYYNPSLKSRVTISRDNSKNTLYLQMNTLRAEDTATYYCARVNMDRFDYWGQGTLVTVSS

Assays:
细胞表面的GPC3蛋白 = 细胞表面的GPC3蛋白 (UniProt P51654); assay: cell-based or functional assay
GPC3-his蛋白 = GPC3-his蛋白 (UniProt P51654 25-559); assay: SPR (Biacore), GPC3-his amine-coupled on CM5, antibody as analyte, 1:1 Langmuir fit

Molecule | 杀伤活性 IC50, Hep3BLG cells, 72 h, luciferase viability (细胞表面的GPC3蛋白) | Kd (GPC3-his蛋白)
HN3-PE24 | 0.109 mg/L | 
B1 |  | 1.95 nM
